Assay results reported in patent US20030199671A1, “Binding molecules for Fc-region polypeptides” (priority 2001, published 2003).
One block for each substance: values may come before it. code X = not defined here; Su = not defined here

What was measured:
human IgG [1] = type: binding
Description: (§1) In addition, the following targets, all unfractionated IgGs, were also evaluated with selected immobilized peptides for species specificity characterization in a similar format: human IgG, goat IgG, bovine IgG, and mouse IgG (Sigma, product nos. I4506, I5256, I5506, and I15381, respectively). In addition, 10 μl aliquots of hydrolyzed NHS-activated Sepharose 4 Fast Flow (Amersham Pharmacia Biotech, product no. 17-0906-01) and immobilized recombinant Protein A (RepliGen Corp., product no. IPA-400) were also assayed as negative and positive controls. IgG targets were diluted into 10 mM phosphate buffer containing 150 mM NaCl and 0.01% Tween 20, pH 7.2 (PBST) or 50 mM Tris buffer containing, 150 mM NaCl and 0.01% Tween-20, pH 7.5 (TBST). Batch (static) binding and elution studies were conducted in a 96-well assay filterplate (Millipore MultiScreen-HV, with 0.45 μm Durapore membrane, product no. MAHVN4510). The target was allowed to incubate with the resin for 1-1.5 hours with shaking at room temperature. Unbound target was collected by centrifugation of samples from the assay plate directly into a low-UV absorbing 96-well collection plate (Costar, product no. 3635 or Greiner, product no. 655801). The unbound target was then quantitated by reading the absorbance at 280 nm (normalized to 1 cm pathlength, 1.4 mg/ml A280 extinction coefficient) of the collection plate on a microplate spectrophotometer (Molecular Devices Corp., SPECTRAmax PLUS) against a buffer blank.
(§2) The percentage bound target was determined by subtracting the mass determined as unbound from the corresponding condition's control values (control non-filtered added directly to the collection plate and/or the negative control). The assay plate was washed (3×) with 200 μl of binding buffer by vacuum filtration followed by addition of 100 μl of various elution conditions (e.g.: 0.1 M sodium bicarbonate buffer, pH 8.5 and/or 0.1 M sodium citrate buffer, pH 4.0). After a 30-60 minute incubation with shaking at room temperature, the eluted target was collected by centrifugation of the assay plate into another collection plate and quantitated in a similar manner. Percent elution of total load was then determined to characterize elution recovery efficiency under various conditions. The assay plate was then washed (3×) with 200 μl of binding buffer by vacuum filtration followed by addition of a resin cleaning condition (e.g., 0.1M CAPS buffer (3-[Cyclohexylamino]-1-propane-sulfonic acid), pH 11.5, to regenerate the resin for re-use. Percentage mass balance determination was calculated to be 90-100% on average.

human IgG [2] = assay: Static (filterplate) binding capacity; conditions: Table 18; 25 mg human IgG applied per ml resin; average ligand density 1.9 μmole/ml
Description: These media were used to determine the effect of ligand density on human IgG binding capacity in both static (filterplate) and dynamic (mini-column) modes with commercial immobilized recombinant Protein A (Repligen, IPA400) at a single density as control. Actual ligand densities obtained ranged from 0.17 to 3.2 μmole/ml media as confirmed by quantitative amino acid analysis.
After incubation of the samples, with shaking, at room temperature for one hour, the supernatant liquid from each well, containing unbound IgG, was collected by centrifugation into the cognate well of a collection plate. The assay plate was washed three times with PBST (200 μl/wash) and bound IgG was eluted from the media samples by incubation for 30-60 minutes at room temperature in 100 μl Elution Buffer (100 mM CAPS, pH 11.5). Eluates were collected by centrifugation for analysis. Protein concentrations were determined from A280 measurements and plotted as a function of mg human IgG bound per ml resin vs. mg human IgG applied per ml resin.
The amount of IgG captured (estimated from IgG recovered in the elution step) by the various media is dependent upon both the IgG concentration and the ligand density. […] Under these static conditions, where both ligand and target concentrations are close to KD values, equilibrium binding is established and total capacities cannot be accurately determined. However, over the IgG range of 0 to 25 mg IgG applied per ml resin (0 to 2.5 mg/ml target added to 10 μl of resin), capture of IgG is linear. Beyond this point, up to a level of 200 mg IgG applied per ml resin, saturation becomes more pronounced.

human IgG1 = molecular target: T1, human IgG1 (Homo sapiens, UniProt P01857); type: binding; conditions: Table 13
T1 construct: all human subtypes derived from myeloma patients; purchased Calbiochem 400120; host or cells: myeloma patients
Description: as §1, §2

mouse IgG = type: binding; conditions: Table 14; average ligand density 1.8 μM/ml
Description: as §1, §2

human IgG2 = molecular target: T2, human IgG2 (Homo sapiens, UniProt P01859); type: binding; conditions: Table 13
T2 construct: all human subtypes derived from myeloma patients; purchased Calbiochem 400122; host or cells: myeloma patients
Description: as §1, §2

IgG4 = IgG4 (Homo sapiens, UniProt P01861); type: binding; parameters: all human subtypes derived from myeloma patients; purchased Calbiochem 400126; host or cells: myeloma patients; conditions: Table 13
Description: as §1, §2

Chain of IgG4 (P01861 1-327 isoform P01861-1): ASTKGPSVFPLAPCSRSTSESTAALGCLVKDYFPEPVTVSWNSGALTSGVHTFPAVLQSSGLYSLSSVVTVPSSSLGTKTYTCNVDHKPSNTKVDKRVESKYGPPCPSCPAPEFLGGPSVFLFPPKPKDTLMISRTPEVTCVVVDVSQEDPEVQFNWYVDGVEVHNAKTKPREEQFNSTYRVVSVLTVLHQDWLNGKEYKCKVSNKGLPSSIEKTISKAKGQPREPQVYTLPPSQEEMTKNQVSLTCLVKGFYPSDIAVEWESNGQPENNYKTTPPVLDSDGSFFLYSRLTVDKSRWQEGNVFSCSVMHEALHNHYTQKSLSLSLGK
T1 sequence (P01857 1-330 isoform P01857-1): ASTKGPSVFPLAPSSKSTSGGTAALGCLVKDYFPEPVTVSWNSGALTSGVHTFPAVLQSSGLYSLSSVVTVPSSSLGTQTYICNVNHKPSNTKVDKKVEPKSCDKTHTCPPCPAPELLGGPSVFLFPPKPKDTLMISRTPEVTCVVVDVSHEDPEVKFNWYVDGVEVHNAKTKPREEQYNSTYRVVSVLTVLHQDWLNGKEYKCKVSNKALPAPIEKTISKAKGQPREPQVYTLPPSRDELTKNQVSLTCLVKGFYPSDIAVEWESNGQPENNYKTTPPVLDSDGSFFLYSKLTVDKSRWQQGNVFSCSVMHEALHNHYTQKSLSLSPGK
T2 sequence (P01859 1-326 isoform P01859-1): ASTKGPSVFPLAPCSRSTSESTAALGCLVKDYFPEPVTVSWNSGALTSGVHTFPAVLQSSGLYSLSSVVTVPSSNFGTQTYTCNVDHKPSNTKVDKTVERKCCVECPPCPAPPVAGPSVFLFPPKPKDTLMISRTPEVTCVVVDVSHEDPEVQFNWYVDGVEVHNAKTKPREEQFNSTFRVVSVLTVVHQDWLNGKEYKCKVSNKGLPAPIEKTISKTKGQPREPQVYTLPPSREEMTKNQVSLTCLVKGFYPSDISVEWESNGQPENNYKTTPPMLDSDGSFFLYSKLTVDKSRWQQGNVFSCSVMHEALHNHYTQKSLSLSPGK

Batch Binding (% Capture of Total Load) hIgG (human IgG [1]; Table 18, average ligand density 1.9 μmole/ml): 63%
Static Cap. (human IgG [2]): 23 mg/mL
Substance: Ac-GDDHMCVYTTWGELIWCDNHEPG-X-Su-X-NH2 (Ac-GDDHMCVYTTWGELIWCDNHEPG-{code X-Su-code X-NH2}; not fully specified (bridges); printed as Ac-GDDHMCVYTTWGELIWCDNHEPG-X-Su-X-NH2; cysteine pairing not given here; reading uncertain) [DX878]

% IgG Capture - Batch Binding, Human IgG (human IgG [1]; Table 14, average ligand density 1.8 μM/ml): 77%
hIgG1 elution pH 2.5 (% of Total Load) (human IgG1): 76%
hIgG1 elution pH 3.5 (% of Total Load) (human IgG1): 81%
hIgG1 elution pH 4.5 (% of Total Load) (human IgG1): 39%
hIgG1 elution pH 5.5 (% of Total Load) (human IgG1): 1%
hIgG1 elution pH 9.0 (% of Total Load) (human IgG1): 52%
hIgG1 elution pH 9.5 (% of Total Load) (human IgG1): 57%
% IgG Capture - Batch Binding, Mouse IgG (mouse IgG): 3%
hIgG2 elution pH 2.5 (% of Total Load) (human IgG2): 82%
hIgG2 elution pH 3.5 (% of Total Load) (human IgG2): 80%
hIgG2 elution pH 4.5 (% of Total Load) (human IgG2): 38%
hIgG2 elution pH 5.5 (% of Total Load) (human IgG2): 1%
hIgG2 elution pH 9.0 (% of Total Load) (human IgG2): 51%
hIgG2 elution pH 9.5 (% of Total Load) (human IgG2): 60%
hIgG4 elution pH 2.5 (% of Total Load) (IgG4): 50%
hIgG4 elution pH 3.5 (% of Total Load) (IgG4): 62%
hIgG4 elution pH 4.5 (% of Total Load) (IgG4): 13%
hIgG4 elution pH 5.5 (% of Total Load) (IgG4): 3%
hIgG4 elution pH 9.0 (% of Total Load) (IgG4): 56%
hIgG4 elution pH 9.5 (% of Total Load) (IgG4): 67%
Substance: Ac-GDSWNCAFHHNEMVWCDDGGTPGPEGGGK-NH2 (not fully specified (bridges); printed as Ac-GDSWNCAFHHNEMVWCDDGGTPGPEGGGK-NH2; cysteine pairing not given here) [DX597]
